Earlier results, collected in publication PMC4253632.

Molecular target: Syntaxin 4 (Homo sapiens) (UniProt Q12846)
UniProt Q12846, sequence (Q12846 whole entry): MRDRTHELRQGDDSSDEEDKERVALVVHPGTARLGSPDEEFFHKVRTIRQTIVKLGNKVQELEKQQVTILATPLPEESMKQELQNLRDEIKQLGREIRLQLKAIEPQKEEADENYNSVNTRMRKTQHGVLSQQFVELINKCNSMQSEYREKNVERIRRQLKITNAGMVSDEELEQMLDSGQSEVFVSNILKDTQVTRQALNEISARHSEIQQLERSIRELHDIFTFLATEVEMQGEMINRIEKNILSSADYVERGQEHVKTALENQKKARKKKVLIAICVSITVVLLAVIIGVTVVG

Kd: 30 nM
Substance: Munc18c (from UniProt O00186)
